The data set deals with H-NS. Nature of the data set: EMSA. Particulars: EMSA: ~5 ng DNA, 50 ng poly(dI-dC), 15 ul, 20 C 10 min; binding buffer not stated (cited); 7% polyacrylamide gel in TAE (Tris-HCl 40 mM pH 7.4, Na acetate …).

Results on one substance are retold here after article PMC4636849.

“mdtJI promoter fragment, 588 bp (-229 to +359)”: the K half is 320 nM.
